The target of this experiment is T1, human ROR1 on the cell surface (human, UniProt Q01973 30-937).
T1 construct: Endogenous ROR1 of MDA-MB-231, A549, H1299, Jeko-1, primary CLL cells; also called cell surface ROR1; ROR1 positive cells
Nature of the experiment: flow cytometry, Zenon Alexa Fluor 647-labelled antibody on CD5+ CD19+ CLL cells of patient 13, MFI of the isotype control at the same concentration subtracted. As for the experimental part: Anti-ROR1 and control IgG1 antibodies were labeled using a Zenon® Alexa Fluor® 647 human IgG labeling kit (Life Technologies) according to the manufacturer's directions. Frozen peripheral blood mononuclear cells (PBMC) from CLL patients (AllCells LLC) were thawed and washed in FACS buffer (PBS, 2% heat inactivated FBS, 0.1% NaN3). CLL cells were counted and resuspended at 4×10E6 cell/mL in FACS buffer. 2×10E5 cells per test were then incubated in […] FACS buffer with phycoerythrin (PE)-labeled anti-CD5, […] isothiocyanate (FITC)-labeled anti-CD19 (BD Biosciences) and Zenon® Alexa Fluor® 647-labelled anti-ROR1 or control human IgG1 ET901 (Eureka Therapeutics) for 30 minutes on ice. Following incubation, the cells were washed twice in FACS buffer and fixed in 2% paraformaldehyde in PBS (final concentration). Cells were run on a BD LSRII flow cytometer (BD Biosciences) and analyzed using FlowJo software (Treestar).
CLL cells identified as CD5 and CD19 double positive were assessed for anti-ROR1 or control Ig staining.

Data on seven molecules can be found in US20180142016A1 (EUREKA THERAPEUTICS, published 2018).

Residue numbers refer to the chain shown, from its start.

T1 sequence (Q01973 30-937 limits assumed): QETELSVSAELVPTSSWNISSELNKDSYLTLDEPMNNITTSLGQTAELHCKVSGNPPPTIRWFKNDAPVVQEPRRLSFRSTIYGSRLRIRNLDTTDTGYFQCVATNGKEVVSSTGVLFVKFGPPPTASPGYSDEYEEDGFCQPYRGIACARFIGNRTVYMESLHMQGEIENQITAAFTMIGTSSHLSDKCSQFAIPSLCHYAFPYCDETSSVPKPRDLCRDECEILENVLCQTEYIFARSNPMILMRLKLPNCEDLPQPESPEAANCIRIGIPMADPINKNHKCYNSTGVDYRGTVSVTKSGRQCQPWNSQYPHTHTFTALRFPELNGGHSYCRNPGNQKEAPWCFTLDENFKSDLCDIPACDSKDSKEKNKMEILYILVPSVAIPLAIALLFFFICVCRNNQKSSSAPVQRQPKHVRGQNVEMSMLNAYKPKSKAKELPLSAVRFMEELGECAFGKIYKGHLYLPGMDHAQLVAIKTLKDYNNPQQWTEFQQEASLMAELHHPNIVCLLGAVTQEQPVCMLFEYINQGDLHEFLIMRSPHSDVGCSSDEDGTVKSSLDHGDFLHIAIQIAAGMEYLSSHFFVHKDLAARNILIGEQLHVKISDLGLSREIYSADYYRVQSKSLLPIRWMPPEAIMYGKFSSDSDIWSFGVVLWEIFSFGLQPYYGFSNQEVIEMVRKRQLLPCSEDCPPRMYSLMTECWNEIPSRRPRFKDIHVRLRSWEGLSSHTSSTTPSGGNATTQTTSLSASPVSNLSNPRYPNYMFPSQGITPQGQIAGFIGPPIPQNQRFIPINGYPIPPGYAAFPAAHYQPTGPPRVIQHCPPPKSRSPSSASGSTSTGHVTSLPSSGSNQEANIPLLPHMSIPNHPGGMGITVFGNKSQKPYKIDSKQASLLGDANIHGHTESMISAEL

B1: 601-137 (antibody, V domains shown)
VH: QVQLQQSGAEVKKPGASVKVSCKASGYTFSRYYIHWVRQAPGQGLEWMGIINTDGGTTTYAQKFQGRLTMTRDTSTSTVYMELSSLRSDDTAVYYCARDYGTIDARRFDYWGQGTLVTVSS
VL: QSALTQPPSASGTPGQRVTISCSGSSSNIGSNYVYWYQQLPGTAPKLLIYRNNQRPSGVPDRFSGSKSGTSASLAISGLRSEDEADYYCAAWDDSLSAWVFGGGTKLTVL
modifications: Non-covalent Zenon Alexa Fluor 647 label in the assay, not part of the letters
notes: the phage clone of the same number is m26; also called Antibody 601-137; copies: 2 + 2
Regarding B1, the binding result is given as “binds”.

B2: 601-69 (antibody, V domains shown)
VH: QVQLVQSGAEVKKPGESLKISCKGSGYSFTSYWIGWVRQMPGKGLEWMGIIYPGDSDTRYSPSFQGQVTISADKSISTAYLQWSSLKASDTAMYYCARLSSSSYDAFDIWGQGTMVTVSS
VL: QSALTQPASVSGSPGQSITISCTGTSSDVGGYNYVSWYQQHPGKAPKLMIYDVSNRPSGVSNRFSGSKSGNTASLTISGLQAEDEADYYCSSYTSSSIPWVFGGGTKLTVL
modifications: Zenon Alexa Fluor 647 label, bound non-covalently to the Fc, is not carried in the letters
notes: the phage clone of the same number is m50; also called Antibody 601-69; copies: 2 + 2
Consider B2, for which the binding result was “binds”.

B3: 601-43 (antibody, V domains shown)
VH: QVQLQQSGAEVKKPGASVRVSCKASGYSFGNNGITWVRQAPGQGLEWMGWISTYNGNTNYAQKLQGRVTMTTDTSTSTAYMELRSLRSDDTAVYYCARDYYSDSSGYWDDAFDIWGQGTTVTVSS
VL: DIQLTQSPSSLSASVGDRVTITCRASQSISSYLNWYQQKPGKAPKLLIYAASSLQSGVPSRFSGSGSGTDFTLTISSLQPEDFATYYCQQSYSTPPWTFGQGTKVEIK
modifications: Zenon Alexa Fluor 647 label, bound non-covalently to the Fc, is not carried in the letters
notes: the phage clone of the same number is m16; also called Antibody 601-43; copies: 2 + 2
For B3, the binding result is on record as “binds”.

B4: 601-51 (antibody, V domains shown)
VH: not shown
VL: QSALTQPASVSGSPGQSITISCTGTSSDFGDYDYVSWYQQHPGKAPKLMIYDVSDRPSGVSNRFSGSKSGNTASLTISGLQAEDEADYFCSSFTTSSTLVFGGGTKLTVL
modifications: Zenon Alexa Fluor 647 label, bound non-covalently to the Fc, is not carried in the letters
notes: the phage clone of the same number is m19; also called Antibody 601-51; copies: 2 + 2
In the case of B4, the binding result was “binds”.

B5: 601-56 (antibody, V domains shown)
VH: QLQLQESGPGLVKPSETLSLTCTVSGGSISSSSYYWGWIRQPPGKGLEWIGSIYYSGSTYYNPSLKSRVTISVDTSKNQFSLKLGSVTAADTAVYYCARHDGTDAFDIWGQGTTVTVSS
VL: B4 VL with A3V, F93L
modifications: Zenon Alexa Fluor 647 label, bound non-covalently to the Fc, is not carried in the letters
notes: the phage clone of the same number is m28; also called Antibody 601-56; copies: 2 + 2
B5: the binding result is on record as “binds”.

B6: 601-86 (antibody, V domains shown)
VH: QVTLKESGPTLLKPTQTLTLTCTFSGFSLSTRGVGVGWIRQPPGQALEWLTLIYWDDDKRYSPSLKSRLTITKDTSKNQVVLTMTNMESVDTATYYCAQQTMTGAFDIWGQGTTVTVSS
VL: DIQMTQSPSSVSASVGDRVTITCRASQGISTLLAWYQQKPGKAPKLLISSASSLQSGVPARFSGSGSGTDFTLTISSLQPEDFATYYCQQSYRAPTFGQGTKVEIK
modifications: Zenon Alexa Fluor 647 label, bound non-covalently to the Fc, is not carried in the letters
notes: the phage clone of the same number is m27; also called Antibody 601-86; copies: 2 + 2
B6: the binding result was “binds”.

B7: 601-1 (antibody, V domains shown)
VH: EVQLVESGGGLVKPGGSLRLSCAASGFTFSDYYMSWIRQAPGKGLEWVSYISDSTNTIYYADSVKGRFTVSRDNPKNSLYLQMISLRAEDTAVYYCARAVGAGEGFDHWGQGTLVTVSS
VL: not shown
modifications: Zenon Alexa Fluor 647 label, bound non-covalently to the Fc, is not carried in the letters
notes: the phage clone of the same number is m13; also called Antibody 601-1; copies: 2 + 2
For the molecule B7, the binding result is on record as “binds”.
